Experimental data reported in patent US20220275090A1, “Combination Therapies with Anti-CD38 Antibodies and PARP or Adenosine Receptor Inhibitors” (Janssen Biotech, Inc., priority 2021, published 2022).

Molecular target: T1, mouse CD38 (Mus musculus, UniProt P56528)
T1 sequence (P56528 1-304): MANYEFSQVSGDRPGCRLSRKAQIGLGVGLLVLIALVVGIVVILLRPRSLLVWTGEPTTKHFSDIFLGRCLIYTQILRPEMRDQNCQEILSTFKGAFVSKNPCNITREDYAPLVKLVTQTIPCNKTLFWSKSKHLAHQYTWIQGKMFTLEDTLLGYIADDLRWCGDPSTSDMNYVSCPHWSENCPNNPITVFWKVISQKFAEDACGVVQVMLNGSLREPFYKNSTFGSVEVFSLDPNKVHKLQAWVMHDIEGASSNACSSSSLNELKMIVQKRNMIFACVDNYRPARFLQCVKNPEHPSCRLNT
Assay: Binding to mouse CD38 (statement)

binding to mouse CD38: does not bind
Substance: Daratumumab: anti-CD38 antibody of IgG1/κ subtype; heavy chain SEQ ID NO: 12, light chain SEQ ID NO: 13
